The target of assay [1] is T1, full-length Ubl4a (residues 1–157), recombinant (Homo sapiens, UniProt P11441 1-157).
T1 construct: Ubl4a, Homo sapiens, residues 1-157; also called Ubl4a(1–157); full-length Ubl4a wild type; source: recombinant
T1 sequence (looked up): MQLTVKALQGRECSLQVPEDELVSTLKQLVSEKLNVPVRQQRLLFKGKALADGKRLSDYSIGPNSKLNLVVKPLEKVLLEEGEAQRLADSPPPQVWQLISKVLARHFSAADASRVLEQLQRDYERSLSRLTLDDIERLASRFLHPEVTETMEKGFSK
In words: SPR; BAGS domain (residues 1048-1123) immobilised on a CM5 chip by amine coupling; wild-type and mutant Ubl4a as analytes; 298 K; HBS-P (10 mM HEPES, 150 mM NaCl, 0.05% Surfactant P20, pH 7.2); 30 μl/min; two-state reaction model, overall dissociation constant. The note with it: both partners purified.

For assay [2], the target named is T2, full-length Ubl4a H106E mutant, recombinant (Homo sapiens, UniProt P11441 1-157, H106E).
T2 construct: Ubl4a, Homo sapiens, 157 amino acids, with H106E; also called H106E Ubl4a; source: recombinant
T2 sequence (looked up): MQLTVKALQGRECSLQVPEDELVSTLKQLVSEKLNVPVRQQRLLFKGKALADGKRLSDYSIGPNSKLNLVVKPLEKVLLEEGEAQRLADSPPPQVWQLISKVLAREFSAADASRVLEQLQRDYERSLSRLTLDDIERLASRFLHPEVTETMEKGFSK
The assay is described as above. The conditions noted are these: both partners purified.

B1: BAG6 BAGS domain (residues 1048–1123) (domain or fragment, human, UniProt P46379-2 1048-1123, looked up)
chain: MQGEGPQLLLSEAVSRAAKAAGARPLTSPESLSRDLEAPEVQESYRQQLRSDIQKRLQEDPNYSPQRFPNAQRAFA
notes: BAG6, C-terminal BAGS domain, residues 1048-1123; printed length of BAG6 1,126 residues; Removal of GST is told for the crystallised complex; also called BAG6(1048–1123)
For the molecule B1, the Kd was 2.2 ± 0.5 nM in assay [1] and 1600 ± 80 nM in assay [2].
